Consider two molecules from patent US8765674B2, “Methods useful in the treatment of bone resorption diseases” (NPS Pharmaceuticals, Inc., priority 1997, dated 2014).

Assay [1] deals with patient with osteoporosis. Conditions: during therapy with PTH, cited from earlier work.
Assay [2] concerns Postmenopausal females with osteoporosis. Kind of assay: Clinical study: PTH (1-84) given for one year, bone mineral density. Type of assay: in vivo, human. Conditions: subcutaneous injection, 50 to 100 micrograms daily. From the text:
Postmenopausal females (n=172) with osteoporosis were given intact human PTH (1-84), as a subcutaneous injection, for one year in doses from 50 to 100 micrograms daily. It was shown that bone mineral density of the spine was increased in the lumbar spine, on the average by 8%. Increases in individual patients were considerably more than 10%. The changes of the femoral neck were smaller and ranged from 1 to 3%.

B1: PTH: Parathyroid hormone, an 84 amino acid polypeptide normally secreted from the parathyroid glands (protein, UniProt P01270 32-115, looked up)
Parathyroid hormone: SVSEIQLMHNLGKHLNSMERVEWLRKKLQDVHNFVALGAPLAPRDAGSQRPRKKEDNVLVESHEKSLGEADKADVNVLTKAKSQ
Turning to B1, the activation frequency result in assay [1] (calculated) is recorded as “doubled”. Also, in assay [1], the “bone mineral density in the femoral neck” value is “largely unaffected”.

B2: intact human PTH (1-84): intact human parathyroid hormone, full-length 84 amino acid polypeptide (protein, UniProt P01270 32-115, looked up)
Parathyroid hormone: B1 Parathyroid hormone
As for B2, the “increases of lumbar spine bone mineral density in individual patients” value in assay [2] is on record as “more than 10%”. For the same molecule, the “increase of bone mineral density of the lumbar spine, on the average” value in assay [2] (n=172) was determined as 8%.
